Data as given in publication PMC3509593, “Role of Key Residues at the Flavin Mononucleotide (FMN):Adenylyltransferase Catalytic Site of the Bifunctional Riboflavin Kinase/Flavin Adenine Dinucleotide (FAD) Synthetase from Corynebacterium ammoniagenes” (International Journal of Molecular Sciences, 2012).

Target: the molecule itself
Test: SEC; gel filtration of the purified samples on a HiPrep 26/60 Sephacryl S-200 HR column, used to separate the monomeric fraction

B1: FAD synthetase from Corynebacterium ammoniagenes (wild type) (enzyme)
chain: MDIWYGTAAVPKDLDNSAVTIGVFDGVHRGHQKLINATVEKAREVGAKAIMVTFDPHPVSVFLPRRAPLGITTLAERFALAESFGIDGVLVIDFTRELSGTSPEKYVEFLLEDTLHASHVVVGANFTFGENAAGTADSLRQICQSRLTVDVIDLLDDEGVRISSTTVREFLSEGDVARANWALGRHFYVTGPVVRGAGRGGKELGFPTANQYFHDTVALPADGVYAGWLTILPTEAPVSGNMEPEVAYAAAISVGTNPTFGDEQRSVESFVLDRDADLYGHDVKVEFVDHVRAMEKFDSVEQLLEVMAKDVQKTRTLLAQDVQAHKMAPETYFLQAES
notes: FAD synthetase (bifunctional RFK/FMNAT) of Corynebacterium ammoniagenes; N-terminal FMNAT-module residues 1-186 and C-terminal RFK-module residues 187-338; also called CaFADS; WT CaFADS; source: gel filtration on Sephacryl S-200 HR
- binding result: binds
